The nature of the data set: label from the status in PepcDB records.

Turning to “MDIKYKFPFALIIASAALVGCTSNQVKKEEAKPNPLPKLAQTQTQALVPIFSQSVSSMPKADPLRLQLDTLNGVIFVPDPKGKVSAYRGKERLWTTRVTKHRLTAGTVAGEGIVVVGNIKGELIALDQQTGQQKWKAQLTGAVLSPSLIYQGRVTTIANDGTVFAHDAETGQQVWTYKMPTIQFSLRGQPSPVMLDDRTVVVASANGYVYGIDVISGVPRFQRRVAVSEGRSDIQRLIDIDGDPVVSGQYLVTVSYQGQVTVTDLTNLSVVWNQDASSNKRPAVYDNKVFVAQADGKLTAYDLGTGSKLWESDVLLNRQLSNPVMLGKDLVVGDLDGVIHLINPDSGQLIGRAKTRGEVSSLRVVDGHLYTSTRKGALTIWEVR”, the protein production result was “failed”.
With “MDILKTLQKHLGDVETSDFTTNAIEKSQQIAKFSRDMKNINESVGALQVLQIACKKLFNKSMGLEDKDALQASIIKQELREIVENCQFLASPLFDTQLNIAINDEIFSMIVVNPLDLLENVGEFQAYLEEKLNEIKELLGYLSESLSNPKAFMPSFSNQSLKDLLSDNLRA”, the protein production entry was “failed”.
Then “MDISVIDATKVNTETGLHIGESNAPVKMIEFINVRCPYCRKWFEESEELLAQSVKSGKVERIIKLFDKEKESLQRGNVMHHYIDYSAPEQALSALHKMFATQDEWGNLTLEEVATYAEKNLGLKEQKDATLVSAVIAEANAAHIQFVPTIIIGEYIFDESVTEEELRGYIEK”, with “not failed”; and “MDKILFDIALILIFTKIGSLISIHFKMPGVLGELIAGVILGPFILNLIQANADIKLLSDLGVVFLMFLAGIETNLDELKKAGKSSFLIALGGIIIPLIVGTLSAYMFFSNFYENLFVGVILTATSVSISVQTLTELGKLNTRSGINILGAAIIDDVLGLILITVVLAISGGTKSHGSSIFMTFIYIGIFCLVSLLAIAFLPKPIDKLTQKFKPQKGLAIFSIAAALICAFTAEKLGIAAITGAYICGLVLSPITHKEYIEKRVKIISTSFLSPIFFASVGISASVKGLNFEVLLITLIMFIIAVIGKILGCSASALTLKFKKSEALQIGVGMVSRGEVAIITANIGLQAKIISEEIFLPTLIVVILTTVITPILLKIVFSHKTQKLIDKETLT”, with “failed”.
As to “MDKQSERNESKLFISNMVESAIRIGLIFVLLMFTYDIIRPFILPVIWGAIIAVALLPLTKKLQRAYGGRRGLAATTIVLLGIALLVTPLVMVSGSIVDGATHALDVLQNGQVKIPGPKASVADWPLVGDKLYEVWTLFATNLEQAIQTFMPQIKSALTSLLGMVGGVLGSLLLSILSLAIAAGFMTYSESLASGLQTIAIRTAGENAKSWTTLIAATIKSVLLGVVGVAAIQALLIGAGFFVFGVPAAGLLTLILMILCIAQLPALLAVLPVIGYMYMTQDSTTATMFTVWAVVGALSENLLKPMFMGRGVDVPMPVILLGAIGGMLFYGIVGLFLGAVILAIWYELFVWWLSIEKAQQQEEMAELKEEEEQTESGHGAGI”, the protein production entry is “not failed”.
On to “MDKVILITGASGGIGEGIARELGRRCENIVGCTPPGPYRGHCHGDSTQEVPPWRRCWTPTVTPWQPLQAAVDTWGRIDVLVNNAGVMPLSACRSGGRVGAHDRREHQGRALGSGPYCQSWRHSVAGRSSISARSALSVVPTAAVYCATKFAVRAISDTAPGEYQYPRHLRQSRRRRKRTCEPSPTRRPWRRWTPIAPSRFSLDIARAVRQVIEAPQSVDTTEITITDRIGQL”, for which the protein production result is listed as “not failed”.
Then “MDLAGQGQYGQVYLAVNRESGDLVAIKVLSERQLLTRGFLRELNFLLTLQHPHVVGCQAIDYIRVHHSPQVSRSLVMDYCAGGTLRSLLEQEQALPLTTALRLTLDILSALAYAHHRGILHCDLKPENILLEVTATGWQAKVSDFGVARLIEDVKGSGQTGSPAYMAPERFYGQTMPASDLYAVGILLYEMIVGDRPFHGTPAELMAAHLSRPYTLPEGLPFLVRSIIAKALDKLPQRRYKSAAEMTMAVQLALEVIEAEHHQQPLLFSRSPAAVWLGEPQGFALPRLPQQVASTATGFYGVVGDRLWAWQARETIPEATAQWPLPPLPIQLYGSEVSAWLRINALPPQLFCIHDQLIPLDGHLPSTLNPLTIDARGYWWAETQIDSAAAELQLHVQLINGQGRRTLRCQWHGRTFVDTLLLNRRYGAVISRSQDPETAHPITHFQLFDRRGHWRLYTPLPAHLTLLTPAHHQPWQVAAFEDHPQQPLLVLLHLRPWRIQRLGLRFRPQFLCATPWGYVVAGRHSLNLVTHSGEIVGTAESEQEIDGLGFTGDRHLWLIRRQGSGCVIQTWDITTWDIHLIL”, with “failed”; and “MDLEEQKKAVIEKLIREGYIKSKRVIDALLKVPREEFLPEHLKEYAYVDTPLEIGYGQTISAIHMVGMMCELLDLKPGMKVLEIGTGCGYHAAVTAEIVGEDGLVVSIERIPELAEKAERTLRKLGYDNVIVIVGDGTLGYEPLAPYDRIYTTAAGPKIPEPLIRQLKDGGKLLMPVGRYLQRLVLAEKRGDEIIIKDCGPVAFVPLVGKEGFQG”, with “not failed”; and “MDLEINKGIGRNVEFKGLESQYLFIFCGGLLAVFVVFVILYMAGVNQWVCIGFGVAAATLLVWLTFRLNARYGTHGLMKAAARRRHPRYVVNRLKIPRLFTFKHWQE”, with “failed”.
Consider “MDLFDTPLAPLQVLDDAEGGVRYWPQLLAPAVAQAAFAALRDGADWQRHQRTMYDRVVDVPRLLASYRLDAPLPPGLPLQLLLAAVQAQLPAPYNAVGLNLYRDGRDSVAMHHDKLHTLLAPHPIALLSLGTPRRMQLRAKQGATRAITLELAPGSLLAMSHASQLTHEHGIPKTTRALGERISVVFRVRPPARMAAGQHGPHWEALTQTDLEHHHHHH”, for which the protein production result was “not failed”.
“MDLFNLLDGITFWHWLAFGFVLLAVELLGTAGYFLWLGLSALLVGALLAVLPFGWQLQWLSFATFSLLTTWLWWRRQWSRDKQDDQTRDLNQKYKQLIGRSVILEEDFSIGLNRIRIADTTWSAQCEQNIRAGTRVKIVAIDGIILIVEPISE”: the protein production result is “failed”.
Turning to “MDLFSNLALGFQVAASPTNLLLCLTGALVGTLIGVLPGIGTIATVAMLLPITFGLPPVGALIMLAGIYYGAQYGGSTTSILVNIPGEATSVVTTLDGFQMAKQGRAGPALAIAAIGSFAAGCFATVLIALVGEPLTRLALEFGPAEYFSLMVLGLVFAVVLARGSVLKAVAMIVLGLLLSTVGSDIETGVSRMTFDVPELADGLGFATVAMGVFGFAEIIRNLDFGAATDRELVQQKITGLMPTRKDLRDAAPAIGRGTLLGSLLGILPGGGAVIASFAAYTLEKKIARDPKRFGRGAIEGVAAPESANNAAAQTSFIPLLTLGIPPNAVMALMVGAMTIHNIVPGPQVMKNQPELVWGMIASMWIGNLMLLVINLPLVGIWVRLLRVPYRLMFPSIVVFCCIGIYSVNNAPVDVVLAGAFGLIGYWLVKHDFEPAPLLLGMVLGPLMEDNLRRALLISRGDATAFVTRPLSASLLVVAAGLLILSVLPMLRRKRDEVFVESEG”, the protein production entry is “failed”.
“MDLGPEQIFGAPCRKCKEKCEGFELHFWKKTCRNCKCGQEEHGILLSTEEDRKVGRIIEDGKDTNQIAKLKADEIPMDKTSETVLNKPEPEKKDDFTKTVSYEWVPSVQNKALTRQYMQMLPKEKQPVSGSEGAQYRKKQLAKQLPAHDQDPNKCHELSRKEAKEMRQFVKKYKNEALGVGDVRLPSEMNVQHYKGHNPATDRNTPTAVDFKDTSMEPKKPQYSCYSCKHAVKEGNPAIFAERAGYDKLWHPACFICTICGEILVDMIYFWKNGKLYCGRHYCDSEKPRCAGCDELIFSNEYTQAENKNWHLIHFCCFHCHNVLAGKIYVMVGSKPVCKSCYMKIHAVVCQGCHNAIDPEEQRVIYQNFSWHASTACFLCSCCSKCLLGKKFIRVEGMIFCSIECKNMMS”: the protein production result is “failed”.
Turning to “MDLKTSYKGISLNPIYAGSSAVATVSENGKILATPVLDEINIIDLTPGSRKILHKISNEDEQEITALKLTPDGQYLTYVSQAQLLKIFHLKTGKVVRSMKISSPSYILDADSTSTLLAVGGTDGSIIVVDIENGYITHSFKGHGGTISSLKFYGQLNSKIWLLASGDTNGMVKVWDLVKRKCLHTLQEHTSAVRGLDIIEVPDNDEPSLNLLSGGRDDIINLWDFNMKKKCKLLKTLPVNQQVESCGFLKDGDGKRIIYTAGGDAIFQLIDSESGSVLKRTNKPIEELFIIGVLPILSNSQMFLVLSDQTLQLINVEEDLKNDEDTIQVTSSIAGNHGIIADMRYVGPELNKLALATNSPSLRIIPVPDLSGPEASLPLDVEIYEGHEDLLNSLDATEDGLWIATASKDNTAIVWRYNENSCKFDIYAKYIGHSAAVTAVGLPNIVSKGYPEFLLTASNDLTIKKWIIPKPTASMDVQIIKVSEYTRHAHEKDINALSVSPNDSIFATASYDKTCKIWNLENGELEATLANHKRGLWDVSFCQYDKLLATSSGDKTVKIWSLDTFSVMKTLEGHTNAVQRCSFINKQKQLISCGADGLIKIWDCSSGECLKTLDGHNNRLWALSTMNDGDMIVSADADGVFQFWKDCTEQEIEEEQEKAKLQVEQEQSLQNYMSKGDWTNAFLLAMTLDHPMRLFNVLKRALGESRSRQDTEEGKIEVIFNEELDQAISILNDEQLILLMKRCRDWNTNAKTHTIAQRTIRCILMHHNIAKLSEIPGMVKIVDAIIPYTQRHFTRVDNLVEQSYILDYALVEMDKLF”, the protein production result is “failed”.
For the sequence “MDLLAMNIPVSLQSKPPLWLLAELTYRCPLQCAYCSNPLDYAAVKQELSTDEWKDVFRQARAMGSVQLGFSGGEPLLRQDLSELIKYAHELGFYTNLITSGIGLTEQKIAEFSEAGLDHIQISFQASDPALSEILSGSRKAFQQKQAMALAVKKHRYPMVLNFVIHRFNIEQIDQIIELSLELNADYVELATCQFYGWAKLNQAALLPTPEQISYAQARVQAYRQYIDQHHLKTKLLLVAPDYYQERPKKCIGGWGQIFITVSPDGTVLPCQSAKDLPLEFPTIQDQSLKTIWNEAFAFNAFRGTDWMQEPCRSCPDKDKDLGGCRCQAYMLTKNMYATDPVCSKSPVHHQIVEARLQTQCSKPDISDLKLRNPQNSKLFFKRASDADSLL”, the protein production result was “failed”.
Take “MDLLATRGDPVSDFSVGRVRGRHLAVPPIRHSAAPSNRHSEAPSSRARAADLDAIRLTGIAAVVVGHVWTSGPFTDALFAWHVPVFFILTGYLWKSGRTVRDEISRRSKTLLVPYVAWLAVLSVAFASVEYLRGGSLPVEALRNAVYGGAFAVRPYSAFWFVPVLFFTAVLFRWLERFPPWMAWIIAGLGLAASVFAGEVMAKTPLGIALAVPCLVFVLVGRALPAMVHRVRYKTAVGVGLVLAGVALTVGGVVQPLNMKDGDFGTVALSVVNASAISLGLILVFAALYRMVSPAVNRLTIQLASAGLVVVLTHAFFLYLLNTPASGSIFDAVVALAVPFALALLVLRSPLRRWLVG”: the protein production entry was “failed”.
Take “MDLLLKAALGAAVVVILAALAKTRNYYIAGLVPLFPTFALIAHYIVGKGRSLDDLKTTILFGMWSIIPYFVYLATLYVMVDRLRLEASLAVAAVAWLIAATILVSVWVRLHA”: the protein production result is given as “failed”.
Then “MDLLQFLIDKNNVFIVAVAVVSGIMLMLPALRKGRAGAAVGTSEAIQMVNQRQAVWVDVRPTEQFQAGHIAQARSLPAADLEKKAGALPKNKPLIVVCEQGRDAARIAARLRSQGFAEVSVLEGGMRAWFAAGLPVTQKG”, with “failed”.
On to “MDLNFSKEEIAFRDEVRQFFKDNVPAKTRQKLIEGRHNTKEEMVEWYRILNKKGWAVTHWPKEYGGTGWSSVQHYIFNEELQAAPAPQPLAFGVSMVGPVIYTFGSEEQKKRFLPRIANVDDWWCQGFSEPGSGSDLASLKTKAEKKGDKWIINGQKTWTTLAQHADWIFCLCRTDPAAKKQEGISFILVDMKTKGITVRPIQTIDGGHEVNEVFFDDVEVPLENLVGQENKGWDYAKFLLGNERTGIARVGMSKERIRRIKQLAAQVESGGKPVIEDPKFRDKLAAVEIELKALELTQLRVVADEGKHGKGKPNPASSVLKIKGSEIQQATTELLMEVIGPFAAPYDVHGDDDSNETMDWTAQIAPGYFNNRKVSIYGGSNEIQRNIICKAVLGL”, for which the protein production entry was “failed”.

Source of the values: a protein production outcome set (Wang et al. 2014).
